From patent publication US20230117883A1

Target: human transferrin receptor 1 (human) (UniProt P02786)
Assay: Carterra LSA biosensor, 25C; IgG captured on anti-IgG lawn, hTfR1 injected; 1:1 Langmuir fit

Sequence of UniProt P02786 (P02786 89-760 limits assumed): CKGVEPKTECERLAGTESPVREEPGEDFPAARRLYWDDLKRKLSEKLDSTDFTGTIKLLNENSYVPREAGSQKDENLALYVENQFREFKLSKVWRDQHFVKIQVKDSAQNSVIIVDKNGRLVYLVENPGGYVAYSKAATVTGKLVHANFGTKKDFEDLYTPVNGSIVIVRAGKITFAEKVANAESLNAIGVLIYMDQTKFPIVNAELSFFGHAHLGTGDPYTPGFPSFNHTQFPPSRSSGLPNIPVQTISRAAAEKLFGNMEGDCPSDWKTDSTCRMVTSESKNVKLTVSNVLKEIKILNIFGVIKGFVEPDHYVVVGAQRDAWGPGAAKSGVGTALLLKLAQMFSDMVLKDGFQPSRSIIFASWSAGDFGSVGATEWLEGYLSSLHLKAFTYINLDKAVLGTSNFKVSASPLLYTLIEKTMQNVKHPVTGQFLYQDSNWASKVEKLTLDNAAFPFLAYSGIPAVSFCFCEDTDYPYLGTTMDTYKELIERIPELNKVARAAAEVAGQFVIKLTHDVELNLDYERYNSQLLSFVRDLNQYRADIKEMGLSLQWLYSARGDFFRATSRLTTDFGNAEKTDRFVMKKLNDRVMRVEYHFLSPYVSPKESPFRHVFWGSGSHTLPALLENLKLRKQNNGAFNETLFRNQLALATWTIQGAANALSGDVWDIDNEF

- Kd: 0.536 nM
- kon: 774000 M⁻¹ s⁻¹
Substance: OKT9 mIgG (known anti-TfR1 antibody, control)
